Where no end group is shown, it is not given here. The star is where a group is joined. Dansyl = CN(C)c1cccc2c(S(=O)(=O)*)cccc12
B1: GST-p67 fusion (natural protein, human, UniProt P19878 1-526, looked up)
chain: MSLVEAISLWNEGVLAADKKDWKGALDAFSAVQDPHSRICFNIGCMYTILKNMTEAEKAFTRSINRDKHLAVAYFQRGMLYYQTEKYDLAIKDLKEALIQLRGNQLIDYKILGLQFKLFACEVLYNIAFMYAKKEEWKKAEEQLALATSMKSEPRHSKIDKAMECVWKQKLYEPVVIPVGKLFRPNERQVAQLAKKDYLGKATVVASVVDQDSFSGFAPLQPQAAEPPPRPKTPEIFRALEGEAHRVLFGFVPETKEELQVMPGNIVFVLKKGNDNWATVMFNGQKGLVPCNYLEPVELRIHPQQQPQEESSPQSDIPAPPSSKAPGRPQLSPGQKQKEEPKEVKLSVPMPYTLKVHYKYTVVMKTQPGLPYSQVRDMVSKKLELRLEHTKLSYRPRDSNELVPLSEDSMKDAWGQVKNYCLTLWCENTVGDQGFPDEPKESEKADANNQTTEPQLKKGSQVEALFSYEATQPEDLEFQEGDIILVLSKVNEEWLEGECKGKVGIFPKVFVEDCATTDLESTRREV

Tests used:
[1] = target: His-tagged Tiam1 PHn-PHc (423–1406) (human, UniProt Q13009 423-1406); test: pull-down
His-tagged Tiam1 PHn-PHc (423–1406), sequence (Q13009 423-1406): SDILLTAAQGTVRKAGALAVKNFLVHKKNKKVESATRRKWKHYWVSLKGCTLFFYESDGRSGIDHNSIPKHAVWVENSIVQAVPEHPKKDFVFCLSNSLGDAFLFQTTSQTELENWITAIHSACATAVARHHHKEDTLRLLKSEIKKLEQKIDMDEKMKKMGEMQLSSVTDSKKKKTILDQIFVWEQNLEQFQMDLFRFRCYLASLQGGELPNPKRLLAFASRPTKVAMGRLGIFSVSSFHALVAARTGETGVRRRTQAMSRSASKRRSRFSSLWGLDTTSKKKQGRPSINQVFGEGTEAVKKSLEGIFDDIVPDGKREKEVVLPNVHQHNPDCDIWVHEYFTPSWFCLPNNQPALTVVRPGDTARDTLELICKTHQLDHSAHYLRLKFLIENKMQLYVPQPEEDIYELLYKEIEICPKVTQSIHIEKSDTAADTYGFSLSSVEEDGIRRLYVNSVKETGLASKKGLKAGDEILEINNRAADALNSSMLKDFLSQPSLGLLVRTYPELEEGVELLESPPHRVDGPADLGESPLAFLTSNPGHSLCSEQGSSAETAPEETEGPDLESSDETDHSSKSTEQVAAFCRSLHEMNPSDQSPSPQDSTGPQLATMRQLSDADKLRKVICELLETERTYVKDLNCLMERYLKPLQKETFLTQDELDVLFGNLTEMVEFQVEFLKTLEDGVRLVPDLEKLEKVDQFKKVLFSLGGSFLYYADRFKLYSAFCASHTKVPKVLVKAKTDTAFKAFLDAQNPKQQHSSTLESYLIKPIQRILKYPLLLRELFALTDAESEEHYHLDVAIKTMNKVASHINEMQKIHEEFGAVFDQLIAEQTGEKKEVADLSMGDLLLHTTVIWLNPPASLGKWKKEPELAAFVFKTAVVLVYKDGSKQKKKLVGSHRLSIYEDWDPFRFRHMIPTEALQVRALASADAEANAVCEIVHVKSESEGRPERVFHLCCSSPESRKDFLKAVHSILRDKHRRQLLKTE

[2] = target: B1; test: pull-down
[3] = target: 15N-labeled Tiam1 PDZ domain (human, UniProt Q13009 841-930); test: NMR titration
15N-labeled Tiam1 PDZ domain, sequence (Q13009 841-930): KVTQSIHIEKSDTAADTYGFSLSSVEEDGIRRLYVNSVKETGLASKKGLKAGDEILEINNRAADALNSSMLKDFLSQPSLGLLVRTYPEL

B1: binds [1].

B2: His-tagged Tiam1 PHn-CC-Ex domain (429–702) (domain or fragment, human, UniProt Q13009 429-702, looked up)
chain: AAQGTVRKAGALAVKNFLVHKKNKKVESATRRKWKHYWVSLKGCTLFFYESDGRSGIDHNSIPKHAVWVENSIVQAVPEHPKKDFVFCLSNSLGDAFLFQTTSQTELENWITAIHSACATAVARHHHKEDTLRLLKSEIKKLEQKIDMDEKMKKMGEMQLSSVTDSKKKKTILDQIFVWEQNLEQFQMDLFRFRCYLASLQGGELPNPKRLLAFASRPTKVAMGRLGIFSVSSFHALVAARTGETGVRRRTQAMSRSASKRRSRFSSLWGLDTT
B2: binds [2].

For Dansyl-MLAELYGSDPREELLY [human VE-cadherin peptide (654–669; MLAELYGSDPREELLY)], the Kd [3] was 980 ± 150 µM.

Reference: publication PMC3678169 (The Journal of Cell Biology, 2013)
